# From article PMC3912051, “The B-Subdomain of the Xenopus laevis XFIN KRAB-AB Domain Is Responsible for Its Weaker Transcriptional Repressor Activity Compared to Human ZNF10/Kox1” (PLoS ONE, 2014)
# Target: TRIM28 (endogenous human TRIM28 protein) (human (endogenous in HeLa), UniProt Q13263 1-835)
# Test: cell-based or functional assay
# TRIM28 (endogenous human TRIM28 protein), sequence (Q13263 whole entry): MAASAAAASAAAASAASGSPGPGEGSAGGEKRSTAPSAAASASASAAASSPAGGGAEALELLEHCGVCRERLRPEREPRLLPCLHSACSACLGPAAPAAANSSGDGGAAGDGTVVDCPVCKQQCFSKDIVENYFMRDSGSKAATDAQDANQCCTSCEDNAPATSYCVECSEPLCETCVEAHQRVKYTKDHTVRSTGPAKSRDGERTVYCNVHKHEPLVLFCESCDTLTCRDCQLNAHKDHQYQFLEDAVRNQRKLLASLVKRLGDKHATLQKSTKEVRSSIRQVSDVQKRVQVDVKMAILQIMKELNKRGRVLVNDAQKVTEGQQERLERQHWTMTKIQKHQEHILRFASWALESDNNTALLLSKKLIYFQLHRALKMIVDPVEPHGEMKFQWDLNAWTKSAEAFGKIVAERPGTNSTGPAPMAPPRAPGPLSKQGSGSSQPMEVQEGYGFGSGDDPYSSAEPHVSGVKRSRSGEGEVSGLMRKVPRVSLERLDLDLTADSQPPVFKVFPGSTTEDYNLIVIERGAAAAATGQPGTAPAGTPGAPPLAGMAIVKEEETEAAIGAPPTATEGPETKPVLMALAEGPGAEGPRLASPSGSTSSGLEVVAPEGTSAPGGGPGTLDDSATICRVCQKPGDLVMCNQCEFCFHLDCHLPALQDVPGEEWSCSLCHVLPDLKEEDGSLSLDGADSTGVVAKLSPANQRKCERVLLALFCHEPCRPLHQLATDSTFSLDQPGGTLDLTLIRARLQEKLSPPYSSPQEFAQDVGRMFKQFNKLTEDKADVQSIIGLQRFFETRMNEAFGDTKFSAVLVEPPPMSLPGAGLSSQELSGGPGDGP
binder,measurement,value
GST-ZNF10-KRAB-AB (KRAB-AB domain of human ZNF10/Kox1 fused to glutathione S-transferase) (domain or fragment) not shown,fold repression of a Gal4-site luciferase reporter by Gal4-ZNF10-KRAB-AB in EPC fish cells with co-transfected human TRIM28 (negligible without it),~2 fold
